Assay results as given in patent US20230295310A1 (ABCELLERA BIOLOGICS, published 2023).

What follows are binders tested against EGFR on HeLa cells (UniProt P00533 25-1210, limits assumed) (assay: cell-based or functional assay).

X… HeLa EC50 | Binder | Max killing %
 | GOMP001_bsAb_050 (bispecific antibody, human IgG1, kappa, L234A L235A) heavy 1: QVQLVESGGGVVQPGRSLRLSCAASGFTFSTYGMHWVRKAPGKGLEWVAVIWYDGSHKYYADEVKGRFTISRDNSKKTLYLQMNSLRAEDTGIYYCARTGISGNMSYFYFDHWGQGILVTVSSASTKGPSVFPLAPSSKSTSGGTAALGCLVADYFPEPVTVSWNSGALTSGVHTFPAVLQSSGLYSLSSVVTVPSSSLGTQTYICNVNHKPSNTKVDEKVEPKSCDKTHTCPPCPAPEAAGGPSVFLFPPKPKDTLMISRTPEVTCVVVDVSHEDPEVKFNWYVDGVEVHNAKTKPREEQYNSTYRVVSVLTVLHQDWLNGKEYKCKVSNKALPAPIEKTISKAKGQPREPQVYTLPPSREEMTDNQVSLTCLVKGFYPSDIAVEWESNGQPENNYKTTPPVLMSDGSFFLASKLTVDKSRWQQGNVFSCSVMHEALHNHYTQKSLSLSPG light 1: not shown heavy 2: QVQLVQSGAEVKKPGASVKVSCKASGYTFTSHWMHWVRYAPGQGLEWIGEFNPSNGRTNYNEKFKSKATMTVDTSTNTAYMELSSLRSEDTAVYYCASRDYDYDGRYFDYWGRGTLVTVSSASTKGPSVFPLAPSSKSTSGGTAALGCLVKDYFPEPVTVSWNSGALTSGVHTFPAVLQSSGLYSLSSVVTVPSSSLGTQTYICNVNHKPSNTKVDKKVEPKSCDKTHTCPPCPAPEAAGGPSVFLFPPKPKDTLMISRTPEVTCVVVDVSHEDPEVKFNWYVDGVEVHNAKTKPREEQYNSTYRVVSVLTVLHQDWLNGKEYKCKVSNKALPAPIEKTISKAKGQPRRPRVYTLPPSREEMTKNQVSLVCLVKGFYPSDIAVEWESNGQPENNYKTTPPVLDSDGSFFLYSVLTVDKSRWQQGNVFSCSVMHEALHNHYTQKSLSLSPG light 2: DIQMTQSPSSLSASVGDRVTITCSASSSVTYMYWYQRKPGDAPKLLIYDTSNLASGVPSRFSGSGSGTDYTFTISSLQPEDIATYYCQQWSSHIFTFGQGTKVEIKRTVAAPSVFIFPPSDEQLKSGTASVVCLLNNFYPREAKVQWKVDNALQSGNSQESVTEQDSKDSTYSLSSTLTLSKADYEKHKVYACEVTHQGLSSPVTKSFNRGEC | 57%
0.0135 nM | GOMP001_bsAb_056 (bispecific antibody) heavy 1: EVNLVESGGGLVQPGRSLRLSCAASGFTFDDYTMHWVRKVPGKGLEWVSNISWNSGSLGYADEVKGRFTISRDNAKDSLYLQMNSLRVEDTALYYCAKDSSGYGHYNSYYMDVWGKGTTVTVSSASTKGPSVFPLAPSSKSTSGGTAALGCLVADYFPEPVTVSWNSGALTSGVHTFPAVLQSSGLYSLSSVVTVPSSSLGTQTYICNVNHKPSNTKVDEKVEPKSCDKTHTCPPCPAPEAAGGPSVFLFPPKPKDTLMISRTPEVTCVVVDVSHEDPEVKFNWYVDGVEVHNAKTKPREEQYNSTYRVVSVLTVLHQDWLNGKEYKCKVSNKALPAPIEKTISKAKGQPREPQVYTLPPSREEMTDNQVSLTCLVKGFYPSDIAVEWESNGQPENNYKTTPPVLMSDGSFFLASKLTVDKSRWQQGNVFSCSVMHEALHNHYTQKSLSLSPG light 1: RIQMTQSPSSLSASVGDRVTITCRASQSIRNYLNWYQDKPGKAPKVLIYSASSLQSGVPSRFSGSGSGTDFTLTISSLQPEDFASFYCQQTYSTPITFGQGTRLEIKRTVAAPSVFIFPPSDKQLKSGTARVVCLLNNFYPREAKVQWKVDNALQSGNSQESVTEQDSKDSTYSLSSTLTLSKADYEKHKVYACEVTHQGLSSPVTKSFNRGEC heavy 2: QVQLVQSGAEVKKPGASVKVSCKASGYTFTSHWMHWVRYAPGQGLEWIGEFNPSNGRTNYNEKFKSKATMTVDTSTNTAYMELSSLRSEDTAVYYCASRDYDYDGRYFDYWGRGTLVTVSSASTKGPSVFPLAPSSKSTSGGTAALGCLVKDYFPEPVTVSWNSGALTSGVHTFPAVLQSSGLYSLSSVVTVPSSSLGTQTYICNVNHKPSNTKVDKKVEPKSCDKTHTCPPCPAPEAAGGPSVFLFPPKPKDTLMISRTPEVTCVVVDVSHEDPEVKFNWYVDGVEVHNAKTKPREEQYNSTYRVVSVLTVLHQDWLNGKEYKCKVSNKALPAPIEKTISKAKGQPRRPRVYTLPPSREEMTKNQVSLVCLVKGFYPSDIAVEWESNGQPENNYKTTPPVLDSDGSFFLYSVLTVDKSRWQQGNVFSCSVMHEALHNHYTQKSLSLSPG light 2: DIQMTQSPSSLSASVGDRVTITCSASSSVTYMYWYQRKPGDAPKLLIYDTSNLASGVPSRFSGSGSGTDYTFTISSLQPEDIATYYCQQWSSHIFTFGQGTKVEIKRTVAAPSVFIFPPSDEQLKSGTASVVCLLNNFYPREAKVQWKVDNALQSGNSQESVTEQDSKDSTYSLSSTLTLSKADYEKHKVYACEVTHQGLSSPVTKSFNRGEC | 96.3%
 | GOMP001_bsAb_051 (bispecific antibody, human IgG1, kappa, L234A L235A) heavy 1: QVQLVQSGAEVKKPGASVKVSCKASGYTFTSHWMHWVRKAPGQGLEWIGEFNPSNGRTNYNEEFKSKATMTVDTSTNTAYMELSSLRSEDTAVYYCASRDYDYDGRYFDYWGQGTLVTVSSASTKGPSVFPLAPSSKSTSGGTAALGCLVADYFPEPVTVSWNSGALTSGVHTFPAVLQSSGLYSLSSVVTVPSSSLGTQTYICNVNHKPSNTKVDEKVEPKSCDKTHTCPPCPAPEAAGGPSVFLFPPKPKDTLMISRTPEVTCVVVDVSHEDPEVKFNWYVDGVEVHNAKTKPREEQYNSTYRVVSVLTVLHQDWLNGKEYKCKVSNKALPAPIEKTISKAKGQPREPQVYTLPPSREEMTDNQVSLTCLVKGFYPSDIAVEWESNGQPENNYKTTPPVLMSDGSFFLASKLTVDKSRWQQGNVFSCSVMHEALHNHYTQKSLSLSPG light 1: RIQMTQSPSSLSASVGDRVTITCSASSSVTYMYWYQDKPGKAPKLLIYDTSNLASGVPSRFSGSGSGTDYTFTISSLQPEDIATYYCQQWSSHIFTFGQGTKVEIKRTVAAPSVFIFPPSDKQLKSGTARVVCLLNNFYPREAKVQWKVDNALQSGNSQESVTEQDSKDSTYSLSSTLTLSKADYEKHKVYACEVTHQGLSSPVTKSFNRGEC heavy 2: QVQLVQSGAEVKKPGASVKVSCKASGYTFTSYYIHWVRYAPGQGLDWMGIINPSGGITGYAQKLQGRVTMTRDTSTTTVYMELSSLRSDDTAVYYCARGVRGNYYYYYMDVWGRGTTVTVSSASTKGPSVFPLAPSSKSTSGGTAALGCLVKDYFPEPVTVSWNSGALTSGVHTFPAVLQSSGLYSLSSVVTVPSSSLGTQTYICNVNHKPSNTKVDKKVEPKSCDKTHTCPPCPAPEAAGGPSVFLFPPKPKDTLMISRTPEVTCVVVDVSHEDPEVKFNWYVDGVEVHNAKTKPREEQYNSTYRVVSVLTVLHQDWLNGKEYKCKVSNKALPAPIEKTISKAKGQPRRPRVYTLPPSREEMTKNQVSLVCLVKGFYPSDIAVEWESNGQPENNYKTTPPVLDSDGSFFLYSVLTVDKSRWQQGNVFSCSVMHEALHNHYTQKSLSLSPG light 2: EIVLTQSPDFQSVTPKEKVTITCRASQSIGSKLHWYQRKPDDSPKLLIKYASQSFSGVPSRFSGSGSGTDFNLTINSLEAEDAATFYCHQSSGLPYTFGQGTKLEIKRTVAAPSVFIFPPSDEQLKSGTASVVCLLNNFYPREAKVQWKVDNALQSGNSQESVTEQDSKDSTYSLSSTLTLSKADYEKHKVYACEVTHQGLSSPVTKSFNRGEC | 60.2%
0.182 nM | GOMP001_bsAb_055 (bispecific antibody, human IgG1, kappa, L234A L235A) heavy 1: QVQLVQSGAEVKKPGASVKVSCKASGYTFTSHWMHWVRKAPGQGLEWIGEFNPSNGRTNYNEEFKSKATMTVDTSTNTAYMELSSLRSEDTAVYYCASRDYDYDGRYFDYWGQGTLVTVSSASTKGPSVFPLAPSSKSTSGGTAALGCLVADYFPEPVTVSWNSGALTSGVHTFPAVLQSSGLYSLSSVVTVPSSSLGTQTYICNVNHKPSNTKVDEKVEPKSCDKTHTCPPCPAPEAAGGPSVFLFPPKPKDTLMISRTPEVTCVVVDVSHEDPEVKFNWYVDGVEVHNAKTKPREEQYNSTYRVVSVLTVLHQDWLNGKEYKCKVSNKALPAPIEKTISKAKGQPREPQVYTLPPSREEMTDNQVSLTCLVKGFYPSDIAVEWESNGQPENNYKTTPPVLMSDGSFFLASKLTVDKSRWQQGNVFSCSVMHEALHNHYTQKSLSLSPG light 1: RIQMTQSPSSLSASVGDRVTITCSASSSVTYMYWYQDKPGKAPKLLIYDTSNLASGVPSRFSGSGSGTDYTFTISSLQPEDIATYYCQQWSSHIFTFGQGTKVEIKRTVAAPSVFIFPPSDKQLKSGTARVVCLLNNFYPREAKVQWKVDNALQSGNSQESVTEQDSKDSTYSLSSTLTLSKADYEKHKVYACEVTHQGLSSPVTKSFNRGEC heavy 2: EVNLVESGGGLVQPGRSLRLSCAASGFTFDDYTMHWVRYVPGKGLEWVSNISWNSGSLGYADRVKGRFTISRDNAKDSLYLQMNSLRVEDTALYYCAKDSSGYGHYNSYYMDVWGRGTTVTVSSASTKGPSVFPLAPSSKSTSGGTAALGCLVKDYFPEPVTVSWNSGALTSGVHTFPAVLQSSGLYSLSSVVTVPSSSLGTQTYICNVNHKPSNTKVDKKVEPKSCDKTHTCPPCPAPEAAGGPSVFLFPPKPKDTLMISRTPEVTCVVVDVSHEDPEVKFNWYVDGVEVHNAKTKPREEQYNSTYRVVSVLTVLHQDWLNGKEYKCKVSNKALPAPIEKTISKAKGQPRRPRVYTLPPSREEMTKNQVSLVCLVKGFYPSDIAVEWESNGQPENNYKTTPPVLDSDGSFFLYSVLTVDKSRWQQGNVFSCSVMHEALHNHYTQKSLSLSPG light 2: DIQMTQSPSSLSASVGDRVTITCRASQSIRNYLNWYQRKPGDAPKVLIYSASSLQSGVPSRFSGSGSGTDFTLTISSLQPEDFASFYCQQTYSTPITFGQGTRLEIKRTVAAPSVFIFPPSDEQLKSGTASVVCLLNNFYPREAKVQWKVDNALQSGNSQESVTEQDSKDSTYSLSSTLTLSKADYEKHKVYACEVTHQGLSSPVTKSFNRGEC | 78%

Each binder was assayed against T1, cynomolgus monkey CD3 (cynomolgus monkey, UniProt Q95LI5 22-198; Q95LI8 22-171; Q95LI7 23-181) (assay: flow cytometry, cyno primary T cells).
T1 construct: whole, on cells; CD3 on purified cynomolgus monkey CD3 pan T cells; also called cyno CD3; CD3 on cyno primary T cells
Summary of the method: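 Binding reported as fold over isotype: median fluorescence intensity divided by isotype control, with ≥10 scored positive. Cells were exposed to 25 nM antibody in PBS/2% FBS, 30 min, 4 °C, before flow cytometric read-out.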

T1 sequence (Q95LI5 22-198, chain 1 of 3): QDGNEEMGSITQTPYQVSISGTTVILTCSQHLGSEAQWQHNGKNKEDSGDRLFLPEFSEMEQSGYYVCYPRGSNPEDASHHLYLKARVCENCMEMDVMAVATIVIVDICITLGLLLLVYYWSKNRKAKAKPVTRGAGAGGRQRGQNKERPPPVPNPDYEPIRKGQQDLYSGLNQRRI
T1 sequence (Q95LI8 22-171, chain 2 of 3): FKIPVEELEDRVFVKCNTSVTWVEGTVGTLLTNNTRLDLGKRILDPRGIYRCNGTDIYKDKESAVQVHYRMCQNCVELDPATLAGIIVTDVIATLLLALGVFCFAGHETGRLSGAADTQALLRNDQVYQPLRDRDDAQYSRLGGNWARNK
T1 sequence (Q95LI7 23-181, chain 3 of 3): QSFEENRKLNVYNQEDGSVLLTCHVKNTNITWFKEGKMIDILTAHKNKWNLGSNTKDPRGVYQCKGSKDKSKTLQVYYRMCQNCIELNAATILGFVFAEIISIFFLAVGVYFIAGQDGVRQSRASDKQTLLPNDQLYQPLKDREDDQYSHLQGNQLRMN

Binder | binding result
mAb 314 (antibody, V domains shown, VH and VL only) VH: EVQLLESGGGLVQPGGSLRLSCAASGFTFSSYAMSWVRQAPGKGLEWVSVISGSGGNKNYADSVKGRFTISRDNSKNTLYLQMNSLRAEDTAVYYCAKKFSYYYYYMDVWGKGTTVTVSS VL: SYELTQPLSVSVALGQTARITCGGNNIGSKDVHWYQQKPGQAPVLVIYRDSNRPSGIPERFSGSNSGNTATLTISRAQAGDEADYYCQVWDSRTAVFGGGTQLTAL | no binding (tested: FOI ≥10 = positive; 25 nM)
mAb 291 (antibody, V domains shown, VH and VL only) VH: EVQLLESGGGLVQPGGSRRLSCAASGFTFSSYALSWVRQAPGKGLEWVSVINTRGDSTSYADSVKGRFTISRDNSKNTLYLQMNSLRAEDTAVYYCAKKYSYYYYYMDVWGKGTTVTVSS VL: SYELTQPLSVSVALGQTARITCGGNNIGSKDVHWYQQKPGQAPVLVIYRDSNRPSGIPERFSGSNSGNTATLTISRAQAGDEADYYCQVWDSRTAVFGGGTQLTAL | no binding (tested: FOI ≥10 = positive; 25 nM)
mAb 295 (antibody, V domains shown, VH and VL only) VH: EVQLLESGGGLVQPGGSLRLSCAASGITFSSYAMSWVRQAPGKGLEWVSTISGNGGTLYYTDSVKGRFTISRDNSKNTLYLQMNSLRAEDTAVYYCAKKYSYYYYYMDVWGKGTTVTVSS VL: SYELTQPLSVSVALGQTARITCGGNNIGSKNVHWYQQKPGQAPVLVIYRDSNRPSGIPERFSGSNSGNTATLTISRAQAGDEADYYCQVWDSSTAVFGGGTQLTAL | no binding (tested: FOI ≥10 = positive; 25 nM)
